Experimental data reported in article PMC4749545, “Kindlin-2 cooperates with talin to activate integrins and induces cell spreading by directly binding paxillin” (eLife, 2016).

Target: T1, recombinant murine kindlin-2 (mouse, UniProt Q8CIB5 1-680)
T1 construct: murine kindlin-2, unmodified after SenP2 cleavage of the His10-SUMO3 tandem tag; Vector pCoofy17; also called recombinant kindlin-2; purified kindlin-2; source: E. coli Rosetta, purified (Ni-NTA, SenP2 cleavage, size-exclusion chromatography); not shown: His10, N-terminal, cleaved; SUMO3, N-terminal, cleaved
T1 sequence (looked up): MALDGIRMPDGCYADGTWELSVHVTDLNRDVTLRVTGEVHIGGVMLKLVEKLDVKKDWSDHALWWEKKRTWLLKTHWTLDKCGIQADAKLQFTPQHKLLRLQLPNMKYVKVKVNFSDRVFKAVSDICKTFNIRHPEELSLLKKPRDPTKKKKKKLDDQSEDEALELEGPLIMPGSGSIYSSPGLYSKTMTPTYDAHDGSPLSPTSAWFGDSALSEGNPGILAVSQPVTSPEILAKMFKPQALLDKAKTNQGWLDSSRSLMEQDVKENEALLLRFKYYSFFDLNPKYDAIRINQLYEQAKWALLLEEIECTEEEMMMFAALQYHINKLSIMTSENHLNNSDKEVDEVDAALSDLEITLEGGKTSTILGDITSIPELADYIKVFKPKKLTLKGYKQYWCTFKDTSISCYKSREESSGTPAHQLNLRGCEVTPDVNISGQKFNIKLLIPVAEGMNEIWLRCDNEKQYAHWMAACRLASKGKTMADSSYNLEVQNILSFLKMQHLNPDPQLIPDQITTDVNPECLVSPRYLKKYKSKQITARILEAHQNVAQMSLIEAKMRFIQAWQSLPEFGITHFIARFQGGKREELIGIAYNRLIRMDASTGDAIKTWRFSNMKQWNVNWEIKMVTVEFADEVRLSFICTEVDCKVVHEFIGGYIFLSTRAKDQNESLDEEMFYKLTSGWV
Assay: pull-down; His10-tagged paxillin-LIM3 (35 µg) or paxillin-FL (10 µg) on Ni-NTA agarose, washed with 1 mM ZnCl2; 14 µg purified kindlin-2 added for 30 min at 4°C; 20 mM Tris pH 7.5, 200 mM NaCl, 1 mM TCEP, 0.05% Tween20; washes with 25 mM imidazole and 1 mM ZnCl2; SDS-PAGE
Details: both partners purified

binding result: binds
B1: His10-SUMO3-paxillin-LIM3 domain (domain or fragment, mouse, UniProt Q8VI36 473-533, looked up)
chain: APKCGGCARAILENYISALNTLWHPECFVCRECFTPFVNGSFFEHDGQPYCEVHYHERRGS
notes: paxillin LIM3 domain, A473-S533; Vector pCoofy17. 'murine' in the sentence of the methods stands before kindlin-2 and may or may not hold for paxillin-LIM3; also called His10-LIM3; His-tagged paxillin-LIM3 domain; source: E. coli Rosetta, purified (Ni-NTA, size-exclusion chromatography); not shown: His10, N-terminal, kept; SUMO3, N-terminal, kept
